Test results: paper PMC4564341

Assays:
[1] = target: CREB pKID αB peptide pKID αB helix (UniProt P16220); conditions: cited from earlier work
[2] = target: Mouse CBP KIX (residues 586-683) (mouse) (UniProt P45481); test: NMR titration
[3] = target: Mouse CBP KIX (residues 586-683) (mouse) (UniProt P45481); test: ITC

Kd [2]	Kd2 (site 2, two-site model) [3]	Substance	Kd [1]
		CBP KIX (from UniProt P45481)	80 µM
21 µM	370 µM	CRTC1-MAML2 TAD1 polypeptide spanning residues 150-190	
